According to US20160145598:

Biological target: thrombin

B1: FX-control+ of family 2 (insertion of the thrombin recognition site on fibrinogen = fibrinopeptide A; comparative) (protein)
chain: ANSFLEEMKKGHLERECMEETCSYEEAREVFEDSDKTNEFWNKYKDGDQCETSPCQNQGKCKDGLGEYTCTCLEGFEGKNCELFTRKLCSLDNGDCDQFCHEEQNSVVCSCARGYTLADNGKACIPTGPYPCGKQTLERRKRSVAQATSSSGEAPDSITWKPYDAADLDPTENPFDLLDFNQTQPERGDNNLTRDFLAEGGGVRIVGGQECKDGECPWQALLINEENEGFCGGTILSEFYILTAAHCLYQAKRFKVRVGDRNTEQEEGGEAVHEVEVVIKHNRFTKETYDFDIAVLRLKTPITFRMNVAPACLPERDWAESTLMTQKTGIVSGFGRTHEKGRQSTRLKMLEVPYVDRNSCKLSSSFIITQNMFCAGYDTKQEDACQGDSGGPHVTRFKDTYFVTGIVSWGEGCARKGKYGIYTKVTAFLKWIDRSMKTRGLPKAKSHAPEVITSSPLKEDQVDPRLIDGK
appearance of FXa after incubation with thrombin (Pefachrome FXa8595 hydrolysis at 405 nm): FX-IIa and FX-control+ are capable of being activated by thrombin and of releasing FXa
